# Test results: patent US6168954A, “Soybean glutathione-S-transferase enzymes” (E. I. du Pont de Nemours & Company, priority 1999, dated 2001)
# B1: se6.pk0037.h4: soybean type III GST encoded by cDNA insert in clone se6.pk0037.h4, expressed in E. coli (protein)
# chain: MAATQEDVTLLGVVGSPFVCRVQIALKLKGIECKFLEENLANKSDLLLKSNPVYKKVPVFIHNEKPIAESLVIVEYIDETWKNNPILPSDPYQRSFARFWSKFIDDKIVGASWKSVFTVDEKEREKNVEESLEALQFLENELQDKRFFGGDEFGFVDIAGVFIAFSIPIFQEVAGLQLFTSEKFPKLFKWSQELINHPVVKDVLPPREPLFAFFKSLYESLSASK
# B2: ses8w.pk0028.c6: soybean type III GST encoded by cDNA insert in clone ses8w.pk0028.c6 (protein)
# chain: MAANQEDVKLLGATGSPFVCRVQIALKLKGVQYKFLEENLRNKSELLLKSNPVHKKVPVFIHNEKPIAESLVIVEYIDETWKNNPILPSDPYQRALARFWSKFIDDKVVGAAWKYIYTVDEKEREKNVEESYEALQFLENELKDKKFFGGEEIGLVDIAAVFIAFWIPIIQEVLGLKLFTSEKFPKLYKWSQEFINHPVVKQVLPPRDQLFAFYKACHESLSASK
# B3: GST-A: soybean type III GST encoded by cDNA insert in clone GSTa (protein)
# chain: MSDEVVLLDFWPSPFGMRVRIALAEKGIKYEYKEEDLRNKSPLLLQMNPVHKKIPVLIHNGKPICESLIAVQYIEEVWNDRNPLLPSDPYQRAQTRFWADYVDKKIYDLGRKIWTSKGEEKEAAKKEFIEALKLLEEQLGDKTYFGGDNLGFVDIALVPFYTWFKAYETFGTLNIEECPKFIAWAKRCLQKESVAKSLPDQQKVYEFIMDLRKKLGIE
# B4: se3.03b09: soybean type III GST encoded by cDNA insert in clone se3.03b09 (protein)
# chain: MSKSEDLKLLGGWFSPFALRVQIALNLKGLEYEVVEETLNPKSDLLLKSNPVHKKIPVFFHGDKVICESAIIVEYIDEAWTNVPSILPQNAYDRANARFWFAYIDEKWFTSLRSVLVAEDDEAKKPHFEQAEEGLERLEEVFNKYSEGKAYFGGDSIGFIDIGFGSFLSWMRVIEEMSGRKLLDEKKHPGLTQWAETFAADPAVKGILPETDKLVEFAKILQLKWTAAAAAAAK
# B5: ssl.pk0005.e6: soybean type III GST encoded by cDNA insert in clone ss1.pk0005.e6 (protein)
# chain: MTDEVVLLDFWPSPFGMRVRIALAEKGIEYEYKEEDLRNKSPLLLQMNPVHKKIPVLIHNGKPISESLIAVQYIEEVWNDRNPLLPSDPYQRAQARFWADYVDIKIHDLGKKIWTSKGEEKEAAKKEFIEALKLLEEQLGDKTYFGGDNIGFVDIALVPFYTWFKVYETFGSLNIENECPRFVAWAKRCLQKESVAKSLPDQHKVYEFVVEIRKKLVIE
# B6: ssl.pk0020.b10: soybean type III GST encoded by cDNA insert in clone ss1.pk0020.b10 (protein)
# chain: MAEQDKVILHGMWASPYAKRVELALNFKGIPYEYVEEDLRNKSDLLLKYNPVHKKVPVLVHNGKAIAESMVILEYIDETWKDGPKLLPSDSYKRAQARFWCHFIQDQLMESTFLVVKTDGEAQQKAIDHVYEKLKVLEDGMKTYLGEGNAIISGVENNFGILDIVFCALYGAYKAHEEVIGLKFIVPEKFPVLFSWLMAIAEVEAVKIATPPHEKTVGILQLFRLSALKSSSATE
# B7: ssm.pk0067.g5: soybean type III GST encoded by cDNA insert in clone ssm.pk0067.g5 (protein)
# chain: MASYHEEEVRLLGKWASPFSNRVDLALKLKGVPYKYSEEDLANKSADLLKYNPVHKKVPVLVHNGNPLPESLIIVEYIDETWKNNPLLPQDPYERALARFWSKTLDDKILPAIWNACWSDENGREKAVEEALEALKILQETLKDKKFFGGESIGLVDIAANFIGYWVAILQEIAGLELLTIEKFPKLYNWSQDFINHPVIKEGLPPRDELFAFFKASAKK
# Assay: GST conjugation activity with ethacrynic acid (HPLC)
# Format: biochemical
# Details: 0.4 mM electrophilic substrate, 4 mM glutathione, 0.1 M MOPS pH 7.0, corrected for uncatalyzed reaction
# Text: (§1) The GST enzymes, expressed and purified as described in Example 5 were screened for their ability to metabolize a variety of substrates. Substrates tested included the three herbicide electrophilic substrates chlorimuron ethyl, alachlor, and Atrazine, and four model electrophilic substrates, 1-chloro-2, 4-dinitro-benzene (CDNB), ethacrynic acid, t-stilbene oxide, and 1,2-epoxy-3-(p-nitro-phenoxy) propane. The enzymes were purified as described in Example 5 and used in the following assay.
# (§2) For each enzyme, the conjugation reaction with each electrophilic substrate was performed by incubating 0.3 to 30 μg enzyme in 0.1 M MOPS (pH 7.0) containing 0.4 mM of the electrophilic substrate. The reaction was inititated by the addition of glutathione to a final concentration of 4 mM. After 5 to 30 min, the reaction was terminated by the addition of 45 μL acetonitrile, microfuged for 10 min to remove precipitated protein, and then the supematent was removed and added to 65 μL of water. This sample was chromatographed on a Zorbax C8 reverse phase HPLC column (3 μm particle size, 6.2 mm×8 cm) using a combination of linear gradients (flow=1.5 mL/min) of 1% H3 PO4 in water (solvent A) and 1% H3 PO4 in acetonitile. The gradient started with 5% solvent B, progressing from 5% to 75% solvent B between 1 and 10 min, and from 75% to 95% solvent B between 10 and 12 min. Control reactions without enzyme were performed to correct for uncatalyzed reaction. Quantitation of metabolites were based on an assumption that the extinction coefficient of the conjugate was identical to that of the electrophilic substrate.
# (§3) Activities are related to the activity of a known and previously isolated and purified GST enzyme, GH2/4 (also called GST 26) (Czarnecka et al., Plant Molecular Biology 3:45-58 (1984); Ulmasoz et al., Plant Physiol 108:919-927 (1995)).
row,Molecule,"Activity of soybean GST enzyme, Ethacrynic Acid [nmol/min/mg]"
1,B1,13
2,B2,17
3,B3,109
4,B4,1
5,B5,11
6,B6,14
7,B7,13

# Assay: GST conjugation activity with alachlor (HPLC)
# Format: biochemical
# Details: 0.4 mM electrophilic substrate, 4 mM glutathione, 0.1 M MOPS pH 7.0, corrected for uncatalyzed reaction
# Text: as §1, §2, §3
row,Molecule,"Activity of soybean GST enzyme, Alachlor [nmol/min/mg]"
1,B1,1
2,B2,10
3,B3,71
4,B4,168
5,B5,166
6,B6,7
7,B7,4

# Assay: GST conjugation activity with CDNB (HPLC)
# Format: biochemical
# Details: 0.4 mM electrophilic substrate, 4 mM glutathione, 0.1 M MOPS pH 7.0, corrected for uncatalyzed reaction
# Text: as §1, §2, §3
row,Molecule,"Activity of soybean GST enzyme, CDNB [nmol/min/mg]"
1,B1,2364
2,B2,515
3,B3,1924
4,B4,14364
5,B5,2030
6,B6,470
7,B7,1394

# Assay: GST conjugation activity with t-stilbene oxide (HPLC)
# Format: biochemical
# Details: 0.4 mM electrophilic substrate, 4 mM glutathione, 0.1 M MOPS pH 7.0, corrected for uncatalyzed reaction
# Text: as §1, §2, §3
row,Molecule,"Activity of soybean GST enzyme, T-Stilbene Oxide [nmol/min/mg]"
1,B1,0.06
2,B2,4.04
3,B3,0.06
4,B4,0.07
5,B5,0.06
6,B6,0.02
7,B7,0.49

# Assay: GST conjugation activity with Atrazine (HPLC)
# Format: biochemical
# Details: 0.4 mM electrophilic substrate, 4 mM glutathione, 0.1 M MOPS pH 7.0, corrected for uncatalyzed reaction
# Text: as §1, §2, §3
row,Molecule,"Activity of soybean GST enzyme, Atrazine [nmol/min/mg]"
1,B1,0.19
2,B2,1.40
3,B3,0.03
4,B5,0.00
5,B6,0.03
6,B7,0.03

# Assay: GST conjugation activity with chlorimuron ethyl (HPLC)
# Format: biochemical
# Details: 0.4 mM electrophilic substrate, 4 mM glutathione, 0.1 M MOPS pH 7.0, corrected for uncatalyzed reaction
# Text: as §1, §2, §3
row,Molecule,"Activity of soybean GST enzyme, Chlorimuron Ethyl [nmol/min/mg]"
1,B1,0.1
2,B2,0.2
3,B3,0.5
4,B4,4.4
5,B5,1.4
6,B6,0.1
7,B7,0.1

# Assay: GST conjugation activity with 1,2-epoxy-3-(p-nitrophenoxy)propane (HPLC)
# Format: biochemical
# Details: 0.4 mM electrophilic substrate, 4 mM glutathione, 0.1 M MOPS pH 7.0, corrected for uncatalyzed reaction
# Text: as §1, §2, §3
row,Molecule,"Activity of soybean GST enzyme, 1,2-epoxy-3-(p-nitrophenoxy)propane [nmol/min/mg]"
1,B1,1
2,B2,12
3,B3,22
4,B4,20
5,B5,4
6,B6,47
7,B7,19
